In patent US12065466B2, “Methods and compositions for protein sequencing” (Quantum-Si Incorporated, priority 2020, dated 2024):
Like-named read-outs stand apart in the source and are kept apart here.

What was measured:
[1] = system: immobilized peptides containing an N-terminal amino acid of interest (XAKLDEESILKQK; XXKLDEESILKQK); test: Biolayer interferometry screening of ClpS homologs; format: binding; conditions: for binding to isoleucine peptides, effect of penultimate amino acid: IR, IQ, IA peptides; for binding to valine peptides, effect of penultimate amino acid: VA, VR peptides
Description: The amino acid binding profile of each new homolog was evaluated by biolayer interferometry. ClpS proteins with known binding profiles (atClpS2-V1, atClpS1, and teClpS) were included as controls. In these assays, peptides containing an N-terminal amino acid of interest were immobilized on a biolayer interferometry sensor surface, allowed to bind to ClpS protein, and incubated in buffer to allow the ClpS molecules to dissociate. The binding response (nm) and dissociation off-rate (kdis, s^−1) were measured using a kinetic model. Measurements with each ClpS protein were carried out at 30° C. for the amino acids I, V, M, F. Y, and W, along with D, E, A, and R as negative controls. All peptides contained a penultimate alanine (A) and consisted of the sequence XAKLDEESILKQK (SEQ ID NO: 238).
Results from the biolayer interferometry screening of 61 ClpS homologs (58 new homologs, 3 reference homologs) are shown in FIG. 29B. Response (y-axis) is plotted against the inverse of dissociation rate for eight different dipeptides (data not shown for negative controls DA, AA, and RA). In these plots, higher values on the y-axis correspond to stronger association response and higher values on the x-axis indicate slower dissociation rates.
The effect of penultimate amino acids on isoleucine and valine binding by PS372 were evaluated by measuring binding to peptides with N-terminal IR, IQ, and VR by biolayer interferometry (peptide sequence: XXKLDEESILKQK (SEQ ID NO: 291)). Measurements were also obtained with teClpS for comparison.

[2] = system: FITC-labeled peptide (XAKLDEESILKQK-FITC (SEQ ID NO: 238)); test: Fluorescence polarization of ClpS:streptavidin complexes; format: binding; conditions: 30 minute incubation at 23° C.
Description: ClpS homologs were evaluated by fluorescence polarization to measure the interaction of a FITC-labeled peptide (XAKLDEESILKQK-FITC (SEQ ID NO: 238)) with ClpS:streptavidin complexes. Measurements of polarization response (millipolarization, mP) and total intensity for I, V, L, F, Y, and W were performed in a high-throughput 384-well plate format, using 480 nm excitation and 530 nm emission wavelength with readings collected after 30 minute incubation at 23° C. The results with in-solution binding validated that PS372 binds with leucine, isoleucine, and valine with strength of response in the order LA>IA>VA (FIG. 29E). Binding responses of atClpS2-V1 were FA>YA>WA, and those of teClpS were LA>FA>YA>WA.

[3] = system: amino acid at a terminal position of a polypeptide; test: Amino acid binding preference of recognition proteins (Tables 1 and 2); conditions: Table 1, ClpS proteins; amino acid identity at a terminal position of a polypeptide; inferred from literature and/or demonstrated by the inventors
Source text: It should be appreciated that these sequences and other examples described herein are meant to be non-limiting, and recognition molecules in accordance with the application can include any homologs, variants thereof, or fragments thereof minimally containing domains or subdomains responsible for peptide recognition.

[4] = system: peptides with different N-terminal amino acids, penultimate alanine; test: Biolayer interferometry of multivalent amino acid binders; format: binding
Description: The amino acid binding profile of each Bis-atClpS2-V1 binder (PS609, PS610, and PS611) was evaluated by biolayer interferometry as described above. The monovalent atClpS2-V1 was run as a control. Measurements with each binder were carried out for the amino acids F, Y, and W, along with I, L, M, and V as negative controls. All peptides contained a penultimate alanine (A). Response curves for the tandem binders PS609, PS610, and PS611 are shown in FIGS. 35B, 35C, and 35D, respectively.
The multivalent binder PS612 is a polypeptide that contains tandem copies of two different ClpS protein monomers (atClpS2-V1 and PS372). The amino acid binding profile of PS612 was evaluated by biolayer interferometry as described above. The monovalent binders atClpS2-V1 and PS372 were separately run as controls.
The multivalent binder PS614 is a polypeptide that contains two copies of the ClpS binder PS372 oriented in tandem. The amino acid binding profile of PS614 was evaluated by biolayer interferometry as described above.
The multivalent binders PS637, PS638, and PS639 are polypeptides that each contain two copies of the ClpS binder PS557 oriented in tandem and separated by Linker 1, Linker 2, and Linker 3, respectively. The amino acid binding profiles of each binder was evaluated by biolayer interferometry as described above.

[5] = system: LF, LA, IR, IA, VR, and VA peptides; test: Binder-on-chip single-molecule assay (PS372); format: binding
Description: Binder-on-chip experiments were performed for PS372 with LF, LA, IR, IA, VR, and VA peptides to evaluate recognition by signal pulse detection in single-molecule assays. […] For comparison, the mean pulse width observed with the L-binder teClpS was 768 ms (˜37% shorter than PS372).

[6] = system: N-terminal isoleucine peptide and N-terminal leucine peptide; test: Peptide-on-chip recognition assay with labeled PS372; format: binding
Chain of N-terminal isoleucine peptide and N-terminal leucine peptide (P22629 25-183 partner, one chain of several): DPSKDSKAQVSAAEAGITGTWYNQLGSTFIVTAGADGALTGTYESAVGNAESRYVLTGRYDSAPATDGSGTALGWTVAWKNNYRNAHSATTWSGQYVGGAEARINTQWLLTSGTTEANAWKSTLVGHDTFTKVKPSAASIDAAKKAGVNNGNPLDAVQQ

[7] = system: N-terminal amino acids of peptides; test: Single-molecule terminal amino acid recognition by labeled recognition molecule (dwell time analysis); format: binding
Description: An adaptor protein involved in proteolytic pathways was identified as a potential candidate for use as a labeled recognition molecule for detecting N-terminal aromatic residues. The adaptor protein, ClpS2 from an α-proteobacterium (A. tumefaciens), was expressed and labeled at an exposed cysteine residue. […] The exposed cysteine residue was labeled with a rhodamine dye (ATTO 532).
Peptides having different N-terminal aromatic residues were prepared to test whether the labeled ClpS2 was capable of N-terminal amino acid discrimination at the single molecule level.
FIG. 19C is a plot showing discriminant pulse durations (time duration of signal peaks) among the three N-terminal residues when reversibly bound by labeled ClpS2. FIG. 19D is a plot showing discriminant interpulse durations (time duration between signal pulses) among the three N-terminal residues. […] Mean pulse duration for the different N-terminal residues is visualized by histograms (A)-(B) and layered histogram (C).

[8] = system: immobilized peptide containing N-terminal phenylalanine (FYPLPWPDDDY (SEQ ID NO: 235)); test: Simultaneous single-molecule recognition with differentially labeled recognition molecules; format: binding; conditions: 500 nM each binder
Description: Single peptide molecules containing N-terminal phenylalanine ([…] (SEQ ID NO: 235)) were immobilized in sample wells of a chip. Buffer containing 500 nM each of atClpS1 (Agrobacterium tumifaciens ClpS1; sequence provided in Table 1) and atClpS2-V1 (Agrobacterium tumifaciens ClpS2 variant 1; sequence provided in Table 1) was added, where atClpS1 and atClpS2-V1 were labeled with Cy3 and Cy3B, respectively. Since the intensity of Cy3B is higher than Cy3, atClpS2-V1 binding events were readily distinguishable from atClpS1 binding events.
The pulse duration distributions were distinct for each binder (FIG. 24B) and corresponded to their kinetic profiles as observed in single-binder experiments. Mean pulse duration was 1.3 seconds for atClpS1 and 1.0 seconds for atClpS2-V1 (FIG. 24C). Pulse rate was also distinct: 8.1 pulses/min for atClpS1 and 14.1 pulses/min for atClp2-V1 (FIG. 24C).

[9] = system: amino acid at a terminal position of a polypeptide; conditions: Table 2; amino acid identity at a terminal position (phosphotyrosine also internal); inferred from literature and/or demonstrated by the inventors; cited from earlier work
[10] = system: labeled peptide (XAKLDEESILKQK-FITC (SEQ ID NO: 238)); RA, KA, HA; test: Single point fluorescence polarization assay of UBR-streptavidin complex; format: binding
Description: Single point fluorescence polarization assays were then performed for selected candidates. These assays measured the interaction of labeled peptide (XAKLDEESILKQK-FITC (SEQ ID NO: 238)) with UBR-streptavidin complex in a format in which these molecules are free in solution. Measurements of polarization response (millipolarization, mP) and total intensity for RA, KA, and HA peptides were performed.

[11] = system: immobilized peptides containing N-terminal R, K or H; test: Biolayer interferometry of UBR-box domain homologs; format: binding
Description: The amino acid binding properties of UBR-box domain homologs were evaluated by biolayer interferometry. Peptides containing an N-terminal arginine (R), followed by different amino acids in the penultimate position, were immobilized on a biolayer interferometry sensor surface, allowed to bind to UBR-box protein, and incubated in buffer to allow the UBR-box molecules to dissociate. […] FIG. 32C is a heatmap showing results measured for 24 UBR-box homologs against 14 polypeptides containing N-terminal R followed by different amino acids in the penultimate position.
UBR proteins bind to the basic N-terminal residues R, K, and H as part of the conserved N-end rule pathway. To identify high-affinity UBR proteins with properties favorable for use in sequencing, a diverse panel of uncharacterized UBR-box domain homologs from 44 species (PS501-PS544) was designed. UBR-box domain homologs were expressed, purified, and evaluated for binding to N-terminal amino acids by biolayer interferometry. Measurements were carried out at 30° C. for each protein for R, K and H binding. The amino-acid binding profile of each new homolog was first evaluated by biolayer interferometry using a single-point screening assay. All peptides in this screen contained a penultimate alanine (A) and consisted of the sequence XAKLDEESILKQK (SEQ ID NO: 238), where X is R, K, or H.
To evaluate the effect of penultimate amino acids on arginine binding, UBR box-domain homologs were evaluated for binding to 14 different peptides with N-terminal RX (peptide sequence: RXGGGDDDFFK (SEQ ID NO: 241)). The selected RX dipeptides are the 14 most frequently found in the human proteome.

dye-labeled RL peptide = test: Peptide-on-chip recognition assay for N-terminal arginine peptide; format: binding
Description: Peptide-on-chip recognition assays for N-terminal arginine peptide were performed with PS621 and PS528. Both PS528 and PS621 recognized N-terminal R, and binding to dye-labeled RL peptide at the single-molecule level was confirmed in these recognition assays, with average pulse width of approximately 60 ms.

B1: PS372: ClpS homolog binding leucine, isoleucine and valine, SEQ ID NO: 5 (protein)
chain: MAFPARGKTAPKNEVRRQPPYNVILLNDDDHTYRYVIEMLQKIFGFPPEKGFQIAEEVDRTGRVILLTTSKEHAELKQDQVHSYGPDPYLGRPCSGSMTCVIEPAV
**Q.** With B1 as the molecule, how does the “amino acids bound (biolayer interferometry)” value ([1]; 30° C., penultimate alanine) read?
**A.** Its value is “binder of leucine, isoleucine, and valine”.

**Q.** What about the “binding to the F, Y, or W peptides” value ([1]; 30° C., penultimate alanine) of the same molecule?
**A.** The value was “did not show binding”.

**Q.** And the “binding to isoleucine peptides, effect of penultimate amino acid” value [1]?
**A.** Its value is “binds IQ and IA with higher affinity relative to IR”.

**Q.** What about the “binding to valine peptides, effect of penultimate amino acid” value [1] of the same molecule?
**A.** The value was “binds well with VA and has negligible response with VR”.

**Q.** What about the “order of strength of polarization response” value [2] of the same molecule?
**A.** The value was “LA>IA>VA”.

**Q.** And the “Binding Pref.” value [3]?
**A.** Its value is “L, I, V”.

**Q.** What about the “N-terminal amino acids bound (biolayer interferometry)” value [4] of the same molecule?
**A.** Its value is “binds N-terminal I, L, and V”.

**Q.** And the mean pulse width ([5]; IA peptide)?
**A.** The mean pulse width was 70 ms.

**Q.** And the mean pulse width ([5]; IR peptide)?
**A.** The mean pulse width was 83 ms.

**Q.** What about the mean pulse width ([5]; LA peptide) of the same molecule?
**A.** Its mean pulse width is 876 ms.

**Q.** What about the mean pulse width ([5]; LF peptide) of the same molecule?
**A.** Its mean pulse width is 1207 ms.

B2: dye-labeled PS372: PEGylated, biotinylated PS372 conjugated 1:1 with streptavidin and a biotinylated Cy3B-labeled oligonucleotide (conjugate)
chain: MAFPARGKTAPKNEVRRQPPYNVILLNDDDHTYRYVIEMLQKIFGFPPEKGFQIAEEVDRTGRVILLTTSKEHAELKQDQVHSYGPDPYLGRPCSGSMTCVIEPAV
**Q.** For B2, which mean pulse width ([6]; N-terminal isoleucine peptide (IAALAAVAADDDW (SEQ ID NO: 239))) is on record?
**A.** The mean pulse width was 78 ms.

**Q.** And the mean pulse width ([6]; N-terminal leucine peptide (LAAIAAFAADDDW (SEQ ID NO: 292)))?
**A.** Its mean pulse width is 957 ms.

B3: atClpS1: Agrobacterium tumifaciens ClpS1, SEQ ID NO: 93 (protein, listed as Agrobacterium tumifaciens)
chain: MIAEPICMQGEGDGEDGGTNRGTSVITRVKPKTKRPNLYRVLLLNDDYTPMEFVIHILERFFQKDREAATRIMLHVHQHGVGECGVFTYEVAETKVSQVMDFARQHQHPLQCVMEKK
**Q.** Which results are given for B3?
**A.** Binding Pref. [3]: F, W, Y, L; recognition of terminal amino acids (dwell time analysis) [7]: differentiable recognition of phenylalanine, leucine, tryptophan, and tyrosine; Pulse rate [8]: 8.1 pulses/min; mean pulse duration [8]: 1.3 s

B4: teClpS: ClpS protein, SEQ ID NO: 107 (protein, listed as Thermosynechococcus elongatus)
chain: MPQERQQVTRKHYPNYKVIVLNDDFNTFQHVAACLMKYIPNMTSDRAWELTNQVHYEGQAIVWVGPQEQAELYHEQLLRAGLTMAPLEPE
**Q.** Which results are given for B4?
**A.** binding to isoleucine peptides, effect of penultimate amino acid [1]: minor response with very fast dissociation for IR peptide only; binding to valine peptides, effect of penultimate amino acid [1]: no response with V peptides; order of strength of polarization response [2]: LA>FA>YA>WA; Binding Pref. [3]: F, W, Y, L; mean pulse duration ([7]; terminal leucine residue): 0.71 s; mean pulse width ([5]; L-binder comparison, peptide not stated): 768 ms

B5: PS621: UBR-box domain homolog, SEQ ID NO: 181 (protein, listed as Kluyveromyces marxianus)
chain: MHSKFSHAGRICGAKFKVGEPIYRCKECSFDDTCVLCVNCFNPKDHTGHHVYTTICTEFNNGICDCGDKEAWNHTLFCKAEEG
**Q.** Which results are given for B5?
**A.** Binding Pref. [9]: K, R, H; polarization response with RA peptide [10]: bind to RA peptides with strong responses; binding range for RX dipeptides ([11]; 14 peptides RXGGGDDDFFK (SEQ ID NO: 241)): extensive binding range for RX dipeptides; binding to RA/KA/HA peptides (single-point screening) ([11]; 30° C., XAKLDEESILKQK): favorable binding characteristics with results that were similar to PS528; average pulse width (dye-labeled RL peptide): approximately 60 ms
